According to US20020081652A1 (YEDA RESEARCH AND DEVELOPMENT, published 2002):

Key:
mAb 198 = assay: competition ELISA: fragment preincubated with mAb 198, binding of mAb 198 to coated Torpedo AChR read
Protocol: Microtiter plates were coated with Torpedo AChR (1 μg/ml) in PBS and incubated overnight at 4° C.

α-bungarotoxin = biological target: T1, α-bungarotoxin (UniProt P60615 22-95); assay: blot overlay with 125I-α-BTX, 20 µg fragment
T1 sequence: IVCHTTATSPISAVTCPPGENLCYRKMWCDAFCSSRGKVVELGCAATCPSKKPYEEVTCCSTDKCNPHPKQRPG

Row | Binder | IC50 (mAb 198) [nM] | binding result (α-bungarotoxin)
1 | Hα1-205 expressed with no fusion partner (receptor, The 5' primer adds an initiation codon (and a Gly codon) before residue 1; also called 'less native' fragment) SEHETRLVAKLFKDYSSVVRPVEDHRQVVEVTAGLQLIQLINVDEVNQIVTTNVRLKQGDMVDLPRPSCVTLGVPLFSHLQDEQWVDYNLKWNPDDYGGVKKIHIPSEKIWRPDLVLYNNADGDFAIVKFTKVLLQYTGHITWTPPAIFKSYCEIIVTHFPFDEQNCSMKLGTWTYDGSVVAINPESDQPDLSNFMESGEWVIKESRGWKHSVTYSCCPDTPYLDITYHF | 3300 | –
2 | Hα1-210 fused to thioredoxin (Trx-Hα1-210) (receptor, Solubilised from inclusion bodies in 9 M urea and dialysed; also called Trx-H1α-210; 'more native' fragment; not shown: thioredoxin (Trx) encoded by the pThioHis-A vector (Invitrogen); the vector's thioredoxin may) SEHETRLVAKLFKDYSSVVRPVEDHRQVVEVTAGLQLIQLINVDEVNQIVTTNVRLKQGDMVDLPRPSCVTLGVPLFSHLQDEQWVDYNLKWNPDDYGGVKKIHIPSEKIWRPDLVLYNNADGDFAIVKFTKVLLQYTGHITWTPPAIFKSYCEIIVTHFPFDEQNCSMKLGTWTYDGSVVAINPESDQPDLSNFMESGEWVIKESRGWKHSVTYSCCPDTPYLDITYHFVMQRL | 300 | binds
